Experimental data reported in patent US20120178139A1.

Target: mouse glycophorin-A on mouse erythrocytes (mouse) (UniProt P14220)
Test: in vivo, flow cytometry of circulating erythrocytes after intravenous administration

8-arm PEG-ERY1 (8-arm PEG-ERY1-ALEXAFLUOR647)
cell-surface half-life: 2.2 h
